# Data taken from paper PMC12264551 (Molecular Pharmacology, 2025).
# T1: calcitonin receptor (Homo sapiens, UniProt P30988)
# T1 sequence (P30988 25-474): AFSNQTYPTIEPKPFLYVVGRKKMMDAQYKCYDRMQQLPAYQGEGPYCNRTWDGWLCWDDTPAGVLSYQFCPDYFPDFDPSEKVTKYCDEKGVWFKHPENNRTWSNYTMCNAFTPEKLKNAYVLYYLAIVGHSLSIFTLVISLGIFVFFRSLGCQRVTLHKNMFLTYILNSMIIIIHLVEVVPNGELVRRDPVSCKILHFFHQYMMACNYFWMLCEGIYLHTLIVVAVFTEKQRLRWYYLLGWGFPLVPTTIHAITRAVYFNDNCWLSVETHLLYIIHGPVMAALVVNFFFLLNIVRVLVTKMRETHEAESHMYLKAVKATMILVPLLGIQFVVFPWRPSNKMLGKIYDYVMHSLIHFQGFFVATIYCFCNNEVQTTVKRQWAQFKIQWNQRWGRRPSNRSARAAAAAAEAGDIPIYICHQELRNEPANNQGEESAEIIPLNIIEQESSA
# T2: vasoactive intestinal polypeptide receptor 2 (UniProt P41587)
# T2 sequence: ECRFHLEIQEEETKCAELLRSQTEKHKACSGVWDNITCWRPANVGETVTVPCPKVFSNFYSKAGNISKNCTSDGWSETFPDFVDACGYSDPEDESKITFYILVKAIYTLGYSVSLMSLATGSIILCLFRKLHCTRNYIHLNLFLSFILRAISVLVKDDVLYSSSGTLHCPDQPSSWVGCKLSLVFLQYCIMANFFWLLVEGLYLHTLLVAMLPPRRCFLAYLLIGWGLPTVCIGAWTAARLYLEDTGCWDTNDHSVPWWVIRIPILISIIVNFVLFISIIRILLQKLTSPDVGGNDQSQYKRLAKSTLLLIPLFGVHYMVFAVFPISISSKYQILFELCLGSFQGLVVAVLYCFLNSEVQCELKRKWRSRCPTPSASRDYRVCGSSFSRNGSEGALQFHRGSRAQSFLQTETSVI
# T3: VPAC1R, endogenous in SaOS-2 cells (human (endogenous in SaOS-2)) (UniProt P32241)
# T3 sequence: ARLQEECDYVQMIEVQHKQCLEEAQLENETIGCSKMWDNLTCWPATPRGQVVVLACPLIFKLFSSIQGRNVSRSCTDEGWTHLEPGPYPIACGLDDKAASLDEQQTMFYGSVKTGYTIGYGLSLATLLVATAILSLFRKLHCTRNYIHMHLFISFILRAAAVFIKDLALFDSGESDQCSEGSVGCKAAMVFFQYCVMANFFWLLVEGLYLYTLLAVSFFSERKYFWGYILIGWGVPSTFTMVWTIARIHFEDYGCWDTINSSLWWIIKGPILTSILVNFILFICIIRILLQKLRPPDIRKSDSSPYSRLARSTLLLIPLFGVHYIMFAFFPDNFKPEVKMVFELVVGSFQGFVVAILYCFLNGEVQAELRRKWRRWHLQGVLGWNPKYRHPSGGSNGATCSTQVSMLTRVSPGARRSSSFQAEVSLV
# T4: vasoactive intestinal polypeptide receptor 1 (UniProt P32241)
# T4 sequence: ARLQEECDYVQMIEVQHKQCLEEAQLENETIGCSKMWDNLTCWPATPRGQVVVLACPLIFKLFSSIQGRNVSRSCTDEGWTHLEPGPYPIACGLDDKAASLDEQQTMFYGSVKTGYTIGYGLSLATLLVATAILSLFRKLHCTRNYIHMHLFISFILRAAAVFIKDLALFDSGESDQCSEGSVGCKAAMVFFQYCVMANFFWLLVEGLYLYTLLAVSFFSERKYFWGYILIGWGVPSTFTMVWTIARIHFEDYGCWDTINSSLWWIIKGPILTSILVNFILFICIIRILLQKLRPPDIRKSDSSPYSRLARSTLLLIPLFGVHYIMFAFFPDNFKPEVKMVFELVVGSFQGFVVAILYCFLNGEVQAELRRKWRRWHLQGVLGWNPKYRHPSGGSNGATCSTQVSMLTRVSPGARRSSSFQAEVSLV
# B1: vasoactive intestinal peptide (peptide)
# peptide: HSDAVFTDNYTRLRKQMAVKKYLNSILN
# Tests used:
# calcitonin receptor [1] = molecular target: T1, calcitonin receptor; assay: Live cell cAMP accumulation (GloSensor), UMR-106 cells transfected with calcitonin receptor; type: cell-based; set-up: host or cells: UMR-106 (rat osteoblast-like) in A1; COS-7 (African monkey kidney) in A3; settings: calcitonin + vehicle, Fig. 1B, fraction of greatest slope, best-fit ± SEM, n = 3
# calcitonin receptor [2] = molecular target: T1, calcitonin receptor; assay: Live cell cAMP accumulation (GloSensor), COS-7 cells transfected with calcitonin receptor; type: cell-based; set-up: host or cells: COS-7 (African monkey kidney) in A3; settings: calcitonin + vehicle, Fig. 1F, fraction of greatest slope, ± SEM, n = 3
# calcitonin receptor [3] = molecular target: T1, calcitonin receptor; assay: Live cell cAMP accumulation (GloSensor), MCF-7 cells with endogenous calcitonin receptor; type: cell-based; set-up: COS-7 (African monkey kidney) in A3; settings: calcitonin + vehicle, Fig. 1D, fraction of greatest slope, ± SEM, n = 3
# calcitonin receptor [4] = molecular target: calcitonin receptor (UniProt P30988)
# [5] = molecular target: calcitonin receptor, endogenous in MCF-7 cells (human (endogenous in MCF-7)) (UniProt P30988)
# [6] = molecular target: T2, vasoactive intestinal polypeptide receptor 2
# [7] = molecular target: T3, VPAC1R, endogenous in SaOS-2 cells (human (endogenous in SaOS-2))
# [8] = molecular target: T4, vasoactive intestinal polypeptide receptor 1
molecule,measurement,setting,value
"CC(C)C[C@H](NC(=O)[C@H](CCCCN)NC(=O)CNC(=O)[C@H](CC(C)C)NC(=O)[C@@H](NC(=O)[C@@H]1CSSC[C@H](N)C(=O)N[C@@H](CO)C(=O)N[C@@H](CC(N)=O)C(=O)N[C@@H](CC(C)C)C(=O)N[C@@H](CO)C(=O)N[C@@H]([C@@H](C)O)C(=O)N1)C(C)C)C(=O)N[C@@H](CO)C(=O)N[C@@H](CCC(N)=O)C(=O)N[C@@H](CCC(=O)O)C(=O)N[C@@H](CC(C)C)C(=O)N[C@@H](Cc1c[nH]cn1)C(=O)N[C@@H](CCCCN)C(=O)N[C@@H](CC(C)C)C(=O)N[C@@H](CCC(N)=O)C(=O)N[C@H](C(=O)N[C@@H](Cc1ccc(O)cc1)C(=O)N1CCC[C@H]1C(=O)N[C@@H](CCCNC(=N)N)C(=O)N[C@H](C(=O)N[C@@H](CC(N)=O)C(=O)N[C@H](C(=O)NCC(=O)N[C@@H](CO)C(=O)NCC(=O)N[C@H](C(=O)N1CCC[C@H]1C(N)=O)[C@@H](C)O)[C@@H](C)O)[C@@H](C)O)[C@@H](C)O [calcitonin, Salmon calcitonin]",Normalized Maximum,calcitonin receptor [1],0.69 ± 0.04
same,Normalized Maximum,calcitonin receptor [2],0.69 ± 0.04
same,Normalized Maximum,calcitonin receptor [3],0.68 ± 0.05
Salmon calcitonin (peptide),"−LogEC50 of calcitonin, maximum rate of cAMP accumulation (GloSensor), COS-7 cells transfected with calcitonin receptor, vehicle (Fig. 1F) (−LogEC50 (EC50 in M))",calcitonin receptor [4],9.64
same,"−LogEC50 of calcitonin, maximum rate of cAMP accumulation (GloSensor), COS-7 cells transfected with calcitonin receptor, with ATP 1.5 mM (Fig. 1F) (−LogEC50 (EC50 in M))",calcitonin receptor [4],10.5
same,"−LogEC50 of calcitonin, maximum rate of cAMP accumulation (GloSensor), UMR-106 cells transfected with calcitonin receptor, vehicle (Fig. 1B) (−LogEC50 (EC50 in M))",calcitonin receptor [4],9.15
same,"−LogEC50 of calcitonin, maximum rate of cAMP accumulation (GloSensor), UMR-106 cells transfected with calcitonin receptor, with ATP 1.5 mM (Fig. 1B) (−LogEC50 (EC50 in M))",calcitonin receptor [4],10.3
same,"−LogEC50 of calcitonin, maximum rate of cAMP accumulation (GloSensor), MCF-7 cells (endogenous calcitonin receptor), vehicle (Fig. 1D) (−LogEC50 (EC50 in M))",[5],8.19
same,"−LogEC50 of calcitonin, maximum rate of cAMP accumulation (GloSensor), MCF-7 cells (endogenous calcitonin receptor), with ATP 1.5 mM (Fig. 1D) (−LogEC50 (EC50 in M))",[5],9.86
B1,"−LogEC50 of VIP, maximum rate of cAMP accumulation (GloSensor), COS-7 cells transfected with VPAC2R, vehicle (Fig. 6H) (−LogEC50 (EC50 in M))",[6],8.9
same,"−LogEC50 of VIP, maximum rate of cAMP accumulation (GloSensor), COS-7 cells transfected with VPAC2R, with ATP 1.5 mM (Fig. 6H) (−LogEC50 (EC50 in M))",[6],9.42
same,"−LogEC50 of VIP, maximum rate of cAMP accumulation (GloSensor), SaOS-2 cells (endogenous VPAC1R), vehicle (Fig. 6K) (−LogEC50 (EC50 in M))",[7],8.35
same,"−LogEC50 of VIP, maximum rate of cAMP accumulation (GloSensor), SaOS-2 cells (endogenous VPAC1R), with ATP 1.5 mM (Fig. 6K) (−LogEC50 (EC50 in M))",[7],9.24
same,"−LogEC50 of VIP, maximum rate of cAMP accumulation (GloSensor), COS-7 cells transfected with VPAC1R, vehicle (Fig. 6E) (−LogEC50 (EC50 in M))",[8],9.56
same,"−LogEC50 of VIP, maximum rate of cAMP accumulation (GloSensor), COS-7 cells transfected with VPAC1R, with ATP 1.5 mM (Fig. 6E) (−LogEC50 (EC50 in M))",[8],10.3
